According to paper PMC9700739:

What was measured:
[1] = target: AMS2b E2E1-I53-50A (hepatitis C virus, strain AMS2b); test: non-reducing SDS-PAGE; purified protein on a non-reducing gel; one band larger than 250 kDa, disulfide-bonded trimer
[2] = target: AMS0232 E2E1-I53-50A (hepatitis C virus, isolate AMS0232 (genotype 1a)); test: as above
[3] = target: AMS0232 E2E1-I53-50A (hepatitis C virus, isolate AMS0232 (genotype 1a)); test: SEC; Strep-Tactin-purified E2E1-I53-50A alone on Superdex 200 Increase 10/300 GL or Superose 6 Increase 10/300 GL; TBS/5% glycerol; elutes as a trimer
[4] = target: H77 E2E1-I53-50A (hepatitis C virus, strain H77); test: non-reducing SDS-PAGE; purified protein on a non-reducing gel; one band larger than 250 kDa, disulfide-bonded trimer
[5] = target: UKNP2.2.1 E2E1-I53-50A (hepatitis C virus, strain UKNP2.2.1 / UKNP2.1.1); test: as above
[6] = target: UKNP4.1.1 E2E1-I53-50A (hepatitis C virus, strain UKNP4.1.1); test: as above
[7] = target: UKNP5.2.1 E2E1-I53-50A (hepatitis C virus, strain UKNP5.2.1); test: as above
[8] = target: UKNP6.1.2 E2E1-I53-50A (hepatitis C virus, strain UKNP6.1.2); test: as above

Question: AMS2b E2E1-I53-50A (complex) was tested. Which stoichiometry N [1] did it give?
Answer: 3

Question: How did the stoichiometry N [2] turn out when AMS0232 E2E1-I53-50A (complex) was run?
Answer: 3

Question: What about the stoichiometry N [3] of the same substance?
Answer: 3

Question: H77 E2E1-I53-50A (complex) was tested. Which stoichiometry N [4] did it give?
Answer: 3

Question: UKNP2.2.1 E2E1-I53-50A was tested. Which stoichiometry N [5] did it give?
Answer: 3

Question: For UKNP4.1.1 E2E1-I53-50A (complex), which stoichiometry N [6] is on record?
Answer: 3

Question: For UKNP5.2.1 E2E1-I53-50A (complex), which stoichiometry N [7] is on record?
Answer: 3

Question: How did the stoichiometry N [8] turn out when UKNP6.1.2 E2E1-I53-50A (complex) was run?
Answer: 3
